Results as given in the DeepSol protein solubility set.

Assay: soluble on expression in E. coli; label from the status in PepcDB or PDB records

| Sequence | soluble on expression in E. coli |
| --- | --- |
| MGSDKIHHHHHHMSLQISLVNNISQIGSQAWHALFGSEHPFTRYEYLLALESSGACSAQTGWQPRHLIVIEKAAVTENPHSAAAKTDNILALMPLYEKHHSYGEYVFDWAWAEAYERHGLAYYPKLLCAVPFTPVTGTRLAMDSRLDVGQQDAVWTAVVDFLQQQIMTQGYSSWHYLFTNATQSAVLAQAHLTPPSQSQSNQAQRNQTQALQPQANSQASAIKGQPIARLGTQFHWFNRGYRQFDDFLQVMTSRKRKNIQKERAAISKFELSFEFIHGDNITSSQWRSFSLCYQQTYLKRSGHTGYLNSEFFQAIGTSMADAIRLLRVSDKAGKDIAYALYFASDSRLYGRYWGAFEDIPGLHFEACYYQGIEYAIAQGLSCFDAGAQGEHKVLRGFEPIETHSFHAIAHEGFKGAIEDFCQQERRNMQIYMAEQAKNLPYKNSQ | not soluble |
| MGSDKIHHHHHHMSIKSGFVALAGKPNVGKSTFINAVMGRKVVIVSDKPQTTRNRINCIYTDKDSQIIFVDTPGIHKPLHRLGEYMVKAAVQALKGVDLVLFMLDAADGFTKTDEHVAKIVNDSGTKTIIAVNKIDVAGEEKAKAVGELAKSMVENVVSVHYISALKGEGVFEVLEKIKEELPEGPQYYPEDMVTDRPLSFMAAEIIREKIFHLTRQEVPHSTAVVIEEIKDRPNGVLYIRANIYVERDSQKGILIGKNGSMIKKIGTLAREELEFLVGRKVYLDLNVKVKEKWREKDFIILQEIGLKDDIK | not soluble |
| GAMGSGIPMEACPHIRYAFQNDKLLLQQASVGRLTLVNKTTILLRPMKTTTVDLGLYARPPEGHGLMLWGSTSRPVTSHVGIIDPGYTGELRLILQNQRRYNSTLRPSELKIHLAAFRYATPQMEEDKGPINHPQYPGNVGLDVSLPKDLALFPHQTVSVTLTVPPPSIPHHRPTIFGRSGLAMQGILVKPCRWRRGGVDVSLTNFSDQTVFLNKYRRFCQLVYLHKHHLTSFYSPHSDAGVLGPRSLFRWASCTFEEVPSLAMGDSGLSEALEGRQGRGFGSSGQ | soluble |
| GSSPNLRYPIADVSGGIGMSPNYRFRQSMWIGIVSYSGSGLNWRVQVNSDIFIVNDYIHICLPAFDGFSIADGGDLSLNFVTGLLPPLLTGDTEPAFHNDVVTYGAQTVAIGLSSGGTPQYMSKNLWVEQWQDGVLRLRVEGGGSITHSNSKWPAMTVSYPRSFT | soluble |
| MGSDKIHHHHHHMSITKRIRDNQRNTVLSPVPPFPKSMMLEPSNACNHACRFCGNNRSGIKRVNIPVDFARDILAQAAALGVEEVGLYLRGEPFLHPRLNEIVSYAKASGIGYVYLSSNGGCGTTEAYEAVLEAGLDSFKFSINAGNRQDFKAIHGKDDFEKVVERLRWLIAYREATGLDFKIYVSSTFIDATRGAILAMRDEFAPLVDEYYVHGTCPVPGVKSTDLDHGFSLPCPMVFNRVHVTAEGYLNACCFDFENALAVADLTRVPLNDAWASPLFEDLRRKHLMRNAKGVLCGNCVAGGGVEYEPLVMEFMSRSKRHENP | not soluble |
| MGSDKIHHHHHHMDLYQEELIKKISAITPFYIVGGTVRDHLLNRPGKDVDGIIPIPLEELEKHLREWGYHPLKIGAKHQTLSVFQQGQRMDINFFDGDLEADALRRDFTINAVFQDARTGELIDPLQGREDLENKLLRACGNPWERFREDPVRILRMVRFSVQYGMDIEEDTFRSAQSLLPELKHVASERTSEELGRILTLADPAAGIRLLNELGYLTLYLPELVRLQGLAQNRYHTKDAWEHTLQVLANTPPQPILRLAGLFHDLGKWEVASRECYVWGKCWAEDKGYYIGEYRILGRQLHRYHGDYVEVHGTRLDHYPQVIQVKRIRKDPSCRRGFEWVRDGKRHFLGHEKESGRLTRQILARFRLAMVLGKEGEGGEKELLWLIENHMSGTLSFIAELRGEGSALQLNQKVRQFVWEKGWDGRSYRLTRVDQLLELWRADFYGGKKREPKEEQIFEELLEKLHQTNKAVQKRHQELEWGELEKFAQEHKIKGREWGDFKESLRKTRVVSVDWIPLTTGFLEKEYKHFKGRNYAKRERE | not soluble |
| MVLFDQATYEKLLIEAPKFKLITPSILSDRMRVYICIYLLISYSRNDSYIIWQ | not soluble |
| MSLEVIKHDGPGRLGVIRLEPPVQTPALAGVDFTLSPFNSFFYPKDYKEYDFNLAPAIPLSYYTPDEIIKKAVKRLWEVDYSKFNAFYFPALKRTKHYEELFKIIEENDFDAIYIGNSKSMIKDYRGFVFTMRELREKFPNAVLITDLEPFFYPLAVYLGIDAFDIRSLKIYSYEGLGFTQFSPIIWDEPKEDPVEYAKKIIRLIRIAIHEGKLRYLVENFLPTSMNAGILRIADRENIEYLEKYTPVDDKTVVFISDYSMTRPEVYRWAKRVRERFEPPKDIELLLILPCSAKKPYSRSRSHTLYRSAVKEALGEKMHRVHELIVTSPYGVVPREWEWIAKYDIVVTGHWSEREVRLAGELLADVLEKYPDIPIIAHVEGGYREAVKLAMELSGRDVIFTAKGNSTTSRESLANLTKTLKEFDVREGHHHHHH | not soluble |
| EVKLEESGGGLVQPGGSMKLSCAASGFTFSDAWMDWVRQSPEKGLEWVAEIRSKVNNHAIHYAESVKGRFTVSRDDSKSSVYLQMNSLRAEDTGIYYCSGWSFLYWGQGTLVTVSAAKTTPPSVYPLAPGSAAQTNSMVTLGCLVKGYFPEPVTVTWNSGSLSSGVHTFPAVLQSDLYTLSSSVTVPSSTWPSETVTCNVAHPASSTKVDKKIVPRD | soluble |
| MAHHHHHHMGRNNKMRSKPSDNVAWYDKGPVEWLPRPVRLTYDQLDQLRDWMMRETIAGRTEEFNKIRHLHREWSQHPLMPVLGDVEPKFPLNLYKQNHRAKRRFLVRWHKANSPTYWMWMPRGPAVATPLHRSSPSQFPEHWKSLARTSSSSSSSGSSSAAP | soluble |
| MGSDKIHHHHHHMNATQTQMRREINEIPDAVERLLTEGAGAVAATAADIRDLQPSYLLSVARGSSDHASTYLKYASELLLGLPMASVGPSVKSIYGVDLHCKGALSISVSQSGKSPDIVQLTSAFRDKGAYTVAITNDAGSPLAETAAAVLPIHAGPELSVAATKTFVTSLVAGLWVLAEVKQDAALLEAILRLPGHLAKAKDCDWSAAIEAIDGQSLYTLGRGPSWAISNEAALKFKETCQIHAESYSAAEVLHGPVSIVGENFPVIAFAAADAAEESVGEMVAALGDKGARVFATTHKAKGAEVLPHVRTDHWITDPIASIVSFYGMVEAVAARRGVNPDAPRHLNKVTETV | not soluble |
| MINVSDLTQKLPEGSNAGVIAKNINQNQIIADYNGSTFMLPASTQKVFTAVAAKLALGDQFQFETALLSNGKIQNGNLDGNLIVSFTGDPDLTRGQLYSLLAELKKQGIKKINGDLVLDTSVFSSHDRGLGWIWNDLTMCFNSPPAAANIDNNCFYAELDANKNPGEIVKINVPAQFPIQVFGQVYVADSNEAPYCQLDVVVHDNNRYQVKGCLARQYKPFGLSFAVQNTDAYAAAIIQRQLRKLGIEFNGKVLLPQKPQQGQLLAKHLSKPLPDLLKKMMKKSDNQIADSLFRAVAFNYYKRPASFQLGTLAVKSILQKQGIRFGNSILADGSGLSRHNLVAPKTMLSVLEYIAKNEDKLHLMETFPIAGVDGTISGRGGLISPPLVKNVIAKTGSLKGVYNLAGFMTNARGEKVAFVQFINGYSTGDLESKTKRAPLVQFERNLYNELYKY | soluble |
| MNFNGSLFERLADKTQKKTDLNEEERITASIATHLAKLLGTRAGSVNTLPDYGLPELNNASLSAHDTVRQSRLAIEKAIRDYEPRLSEVHVMSDESSWCVLKRTFSIDASLDMNGVKKTVVFSIAVAGDGHVILN | not soluble |
| VAVRPVLAVGSYLPHAPWPWGVIDQAARVLLPASTTVRAAVSLPNASAQLVRASGVLPADGTRRAVLYLHGGAFLTCGANSHGRLVELLSKFADSPVLVVDYRLIPKHSIGMALDDCHDGYRWLRLLGYEPEQIVLAGDSAGGYLALALAQRLQEVGEEPAALVAISPLLQLAKEHKQAHPNIKTDAMFPARAFDALDALVASAAARNQVDGEPEELYEPLEHITPGLPRTLIHVSGSEVLLHDAQLAAAKLAAAGVPAEVRVWPGQVHDFQVAASMLPEAIRSLRQIGEYIREATG | not soluble |
